PMC11638070

Biological target: mitochondrial heat shock protein 60 V72I (mtHsp60^V72I) (human) (UniProt P10809)

“mtHsp10 (from UniProt P61604 1-102) (natural protein)” was tested, and the steady-state ATPase activity of mtHsp60^V72I (500 nM monomer) against mtHsp10 (twofold series from 10 µM monomer); ~21 pmol ATP per min without mtHsp10 was 31 pmol/min.
